Laboratory results as given in FireProtDB.
Several values for one entry are separate records, joined by “and”; a condition that tells them apart may be missing. Equal entries are not always repeated.

Details: whole UniProt chain shown; for Tm / unfolding enthalpy (calorimetric) / unfolding enthalpy (van 't Hoff): Thermal
[1] = Homo sapiens, pH 6.2, 25 °C, 2-Propanol, CD, Piperazine Unknown, NaCl 30 mM, transition: 2, reversible: Yes
[2] = Fusarium vanettenii, pH 9, DSC, Tris 10 mM, NaCl 40 mM, reversible: no
[3] = Homo sapiens, pH 7.4, 25 °C, Urea, CD, transition: 2, reversible: yes
[4] = Homo sapiens, pH 7.4, 25 °C, Urea, absorbance, transition: 2, reversible: yes
[5] = Homo sapiens, pH 7.4, 25 °C, Urea, fluorescence, transition: 2, reversible: yes
[6] = Gallus gallus, pH 7.4, 25 °C, GdnHCl, CD, Tris 50 mM, KCl 100 mM, reversible: yes
[7] = Homo sapiens, pH 5.2, 20 °C, GdnHCl, CD, Sodium acetate 20 mM, reversible: yes
[8] = Escherichia coli, pH 5, 23 °C, Urea, DSC, Acetic acid/MES/Tris 50 mM/50 mM/100 mM/, reversible: yes
[9] = Escherichia coli, pH 8, DSC, Tris/MES/Acetic acid 100 mM/50 mM/50 mM/, reversible: yes
[10] = Halobacterium salinarum (strain ATCC 700922 / JCM 11081 / NRC-1), pH 6.5, DSC, None, reversible: no
[11] = Halobacterium salinarum (strain ATCC 700922 / JCM 11081 / NRC-1), pH 7, DSC, Potassium phosphate 3 mM, KCl 150 mM, reversible: no

B1: Glycodelin wild type, P09466 (protein)
chain: MLCLLLTLGVALVCGVPAMDIPQTKQDLELPKLAGTWHSMAMATNNISLMATLKAPLRVHITSLLPTPEDNLEIVLHRWENNSCVEKKVLGEKTENPKKFKINYTVANEATLLDTDYDNFLFLCLQDTTTPIQSMMCQYLARVLVEDDEIMQGFIRAFRPLPRHLWYLLDLKQMEEPCRF
For B1, the denaturant m value [1] was 1.5 kcal/mol/M, the “denaturant midpoint (higher = more stable)” value (shortened to “denaturant midpoint”) [1] was 3.5 M and the unfolding free energy [1] was 22.6 kJ/mol.

B2: Cutinase 1 wild type, P00590 (protein)
chain: MKFFALTTLLAATASALPTSNPAQELEARQLGRTTRDDLINGNSASCRDVIFIYARGSTETGNLGTLGPSIASNLESAFGKDGVWIQGVGGAYRATLGDNALPRGTSSAAIREMLGLFQQANTKCPDATLIAGGYSQGAALAAASIEDLDSAIRDKIAGTVLFGYTKNLQNRGRIPNYPADRTKVFCNTGDLVCTGSLIVAAPHLAYGPDARGPAPEFLIEKVRAVRGSA
In the case of B2, the Tm (Fusarium vanettenii, pH 4.5, Fluorescence, Sodium acetate 25 mM, reversible: Yes) is reported as 75 °C, the “unfolding enthalpy (calorimetric)” value [2] is reported as 434 kJ/mol and 386 kJ/mol and the “unfolding enthalpy (van 't Hoff)” value [2] is reported as 888 kJ/mol and 510 kJ/mol.

B3: Peroxiredoxin-6 wild type, P30041 (protein)
chain: MPGGLLLGDVAPNFEANTTVGRIRFHDFLGDSWGILFSHPRDFTPVCTTELGRAAKLAPEFAKRNVKLIALSIDSVEDHLAWSKDINAYNCEEPTEKLPFPIIDDRNRELAILLGMLDPAEKDEKGMPVTARVVFVFGPDKKLKLSILYPATTGRNFDEILRVVISLQLTAEKRVATPVDWKDGDSVMVLPTIPEEEAKKLFPKGVFTKELPSGKKYLRYTPQP
For B3, the denaturant m value [3] was 1.02 kcal/mol/M, the “denaturant midpoint” value [3] was 3.02 M and the unfolding free energy [3] was 13.3 kJ/mol. The denaturant m value [4] was 1.03 kcal/mol/M, the “denaturant midpoint” value [4] was 2.71 M and the unfolding free energy [4] was 11.8 kJ/mol. The denaturant m value [5] was 1.04 kcal/mol/M, the “denaturant midpoint” value [5] was 2.74 M and the unfolding free energy [5] was 12 kJ/mol.

B4: Apolipoprotein A-I wild type, P08250 (protein)
chain: MRGVLVTLAVLFLTGTQARSFWQHDEPQTPLDRIRDMVDVYLETVKASGKDAIAQFESSAVGKQLDLKLADNLDTLSAAAAKLREDMAPYYKEVREMWLKDTEALRAELTKDLEEVKEKIRPFLDQFSAKWTEELEQYRQRLTPVAQELKELTKQKVELMQAKLTPVAEEARDRLRGHVEELRKNLAPYSDELRQKLSQKLEEIREKGIPQASEYQAKVMEQLSNLREKMTPLVQEFRERLTPYAENLKNRLISFLDELQKSVA
B4 showed an unfolding free energy (Gallus gallus, pH 7.4, 20 °C, GdnHCl, Fluorescence, Tris 50 mM, KCl 100 mM, reversible: yes) of 12.3 kJ/mol, a denaturant m value [6] of 2.78 kcal/mol/M and an unfolding free energy [6] of 7.78 kJ/mol.

B5: Lysozyme C wild type, P61626 (protein)
chain: MKALIVLGLVLLSVTVQGKVFERCELARTLKRLGMDGYRGISLANWMCLAKWESGYNTRATNYNAGDRSTDYGIFQINSRYWCNDGKTPGAVNACHLSCSALLQDNIADAVACAKRVVRDPQGIRAWVAWRNRCQNRDVRQYVQGCGV
For B5, the unfolding free energy (Homo sapiens, pH 3, 10 °C, GdnHCl, Fluorescence, glycine-HCl 40 mM, reversible: yes) was 49.4 kJ/mol, the unfolding free energy (Homo sapiens, pH 4, 10 °C, GdnHCl, CD, glycine-HCl 40 mM, reversible: yes) was 58.6 kJ/mol and the denaturant m value [7] was 3.6 kcal/mol/M. The “denaturant midpoint” value [7] was 4.12 M and the unfolding free energy [7] was 61.5 kJ/mol.

B6: Phosphoglycerate kinase wild type, P18912 (protein)
chain: MNKKTIRDVDVRGKRVFCRVDFNVPMEQGAITDDTRIRAALPTIRYLIEHGAKVILASHLGRPKGKVVEELRLDAVAKRLGELLERPVAKTNEAVGDEVKAAVDRLNEGDVLLLENVRFYPGEEKNDPELAKAFAELADLYVNDAFGAAHRAHASTEGIAHYLPAVAGFLMEKELEVLGKALSNPDRPFTAIIGGAKVKDKIGVIDNLLEKVDNLIIGGGLAYTFVKALGHDVGKSLLEEDKIELAKSFMEKAKEKGVRFYMPVDVVVADRFANDANTKVVPIDAIPADWSALDIGPKTRELYRDVIRESKLVVWNGPMGVFEMDAFAHGTKAIAEALAEALDTYSVIGGGDSAAAVEKFGLADKMDHISTGGGASLEFMEGKQLPGVVALEDK
In the case of B6, the unfolding free energy (Geobacillus stearothermophilus, pH 7.2, 25 °C, GdnHCl, Fluorescence, TEA 50 mM, reversible: no) is reported as 55.2 kJ/mol and 38.9 kJ/mol and the unfolding free energy (Geobacillus stearothermophilus, pH 7.2, 25 °C, GdnHCl, Fluorescence, tri-ethanolamine 50 mM, reversible: Yes) is reported as 36.7 kJ/mol.

B7: Dihydrofolate reductase type 2 wild type, P00383 (protein)
chain: MERSSNEVSNPVAGNFVFPSNATFGMGDRVRKKSGAAWQGQIVGWYCTNLTPEGYAVESEAHPGSVQIYPVAALERIN
For B7, the denaturant m value [8] was 1.46 kcal/mol/M, the “denaturant midpoint” value [8] was 3.63 M and the unfolding free energy [8] was 55.6 kJ/mol. For the same protein, the unfolding free energy (Escherichia coli, pH 5, 30 °C, GdnHCl, CD, Acetic acid/MES/Tris 50 mM/50 mM/100 mM/, reversible: yes) was 64.9 kJ/mol, the unfolding free energy (Escherichia coli, pH 5, 30 °C, GdnHCl, Fluorescence, Acetic acid/MES/Tris 50 mM/50 mM/100 mM/, reversible: yes) was 56.5 kJ/mol and the unfolding free energy (Escherichia coli, pH 8, 30 °C, GdnHCl, CD, Tris/MES/Acetic acid 100 mM/50 mM/50 mM/, reversible: yes) was 40.3 kJ/mol. The Tm [9] was 71 °C and the “unfolding enthalpy (calorimetric)” value [9] was 1280 kJ/mol.

B8: Bacteriorhodopsin wild type, P02945 (protein)
chain: MLELLPTAVEGVSQAQITGRPEWIWLALGTALMGLGTLYFLVKGMGVSDPDAKKFYAITTLVPAIAFTMYLSMLLGYGLTMVPFGGEQNPIYWARYADWLFTTPLLLLDLALLVDADQGTILALVGADGIMIGTGLVGALTKVYSYRFVWWAISTAAMLYILYVLFFGFTSKAESMRPEVASTFKVLRNVTVVLWSAYPVVWLIGSEGAGIVPLNIETLLFMVLDVSAKVGFGLILLRSRAIFGEAEAPEPSAGDGAAATSD
In the case of B8, the Tm [10] is reported as 96 °C, the “unfolding enthalpy (calorimetric)” value [10] is reported as 350 kJ/mol and the Tm [11] is reported as 85 °C. The “unfolding enthalpy (calorimetric)” value [11] was 96.2 kJ/mol, the “unfolding enthalpy (van 't Hoff)” value [11] was 318 kJ/mol and the Tm (Halobacterium salinarum (strain ATCC 700922 / JCM 11081 / NRC-1), pH 7.5, DSC, phosphate 190 mM, reversible: no) was 95.1 °C. It also gave a Tm (Halobacterium salinarum (strain ATCC 700922 / JCM 11081 / NRC-1), pH 7.9, CD, glycylglycine 50 mM, NaCl 100 mM, reversible: no) of 79 °C and a Tm (Halobacterium salinarum (strain ATCC 700922 / JCM 11081 / NRC-1), pH 9.5, DSC, carbonate 50 mM, NaCl 100 mM, reversible: no) of 81 °C.

B9: Head completion protein wild type, P68660 (protein)
chain: MTRQEELAAARAALHDLMTGKRVATVQKDGRRVEFTATSVSDLKKYIAELEVQTGMTQRRRGPAGFYV
For B9, the unfolding free energy (Escherichia phage lambda, pH 8, 25 °C, Urea, CD, Tris 10 mM, reversible: yes) was 12.2 kJ/mol and 13.7 kJ/mol and the Tm (Escherichia phage lambda, pH 8, CD, Tris 10 mM, reversible: yes) was 71.6 °C and 71.8 °C.

B10: wild type, Q2YD82 (protein)
chain: MDCAEGRAANLPCNHSTISGNEYVYWYRQIHSQGPQYIIHGLKNNETNEMASLIITEDRKSSTLILPHATLRDTAVYYCIVYDYGQNFVFGPGTRLSVLPYIQNPDPAVYQLRDSKSSDKSVCLFTDFDSQTNVSQSKDSDVYITDKTVLDMRSMDFKSNSAVAWSNKSDFACANAFNNSIIPEDTFFPSPESSCDVKLVEKSFETDTNLNFQNLSVIGFRILLLKVAGFNLLMTLRLWSS
With B10 the Tm (Homo sapiens, fluorescence) was 54.9 °C and 53.3 °C.
